Measured values reported in US20140213531A1 (POLYPHOR, published 2014).
Bridges are numbered along the chain shown (N, C = ends). Primed or numbered codes have the meaning given here. [ ]: non-standard residue; d: D form. Pro(4NHCOPhe)″ = 4-benzamido-L-proline, (2S)-4-benzoylamino-pyrrolidine-2-carboxylic acid; Nle = CCCC[C@H](N)C(=O)O

T1: CathepsinG, from human neutrophils (human, UniProt P08311 21-244)
T1 construct: purified natural enzyme, bought
T1 sequence (looked up): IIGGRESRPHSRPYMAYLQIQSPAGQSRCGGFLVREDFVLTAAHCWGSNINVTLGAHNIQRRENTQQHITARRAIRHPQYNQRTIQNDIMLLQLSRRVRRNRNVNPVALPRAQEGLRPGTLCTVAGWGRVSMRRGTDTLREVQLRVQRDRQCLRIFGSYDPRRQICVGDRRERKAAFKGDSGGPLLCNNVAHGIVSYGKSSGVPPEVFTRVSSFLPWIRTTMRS

T2: Chymase, from human skin (human, UniProt P23946 22-247)
T2 construct: purified natural enzyme, bought
T2 sequence (looked up): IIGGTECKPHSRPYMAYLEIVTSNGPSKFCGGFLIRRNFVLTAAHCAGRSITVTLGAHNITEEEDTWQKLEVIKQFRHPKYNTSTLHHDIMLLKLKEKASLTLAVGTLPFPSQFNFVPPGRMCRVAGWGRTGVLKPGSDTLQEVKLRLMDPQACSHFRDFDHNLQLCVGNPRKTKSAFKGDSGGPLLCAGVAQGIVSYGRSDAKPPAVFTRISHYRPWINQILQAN

B1: Example 122 (peptide)
peptide: XCTASIPPQCY
HELM: PEPTIDE1{[Nle].C.T.A.S.I.P.P.Q.C.Y.[dP].F}$PEPTIDE1,PEPTIDE1,2:R3-10:R3|PEPTIDE1,PEPTIDE1,1:R1-13:R2$$$V2.0
SMILES: CCCC[C@@H]1NC(=O)[C@H](Cc2ccccc2)NC(=O)[C@H]2CCCN2C(=O)[C@H](Cc2ccc(O)cc2)NC(=O)[C@@H]2CSSC[C@H](NC1=O)C(=O)N[C@@H]([C@@H](C)O)C(=O)N[C@@H](C)C(=O)N[C@@H](CO)C(=O)N[C@@H]([C@@H](C)CC)C(=O)N1CCC[C@H]1C(=O)N1CCC[C@H]1C(=O)N[C@@H](CCC(N)=O)C(=O)N2
B2: Example 154 (peptide)
peptide: XQTASIPPQTY
HELM: PEPTIDE1{[CCCCCCCC[C@H](N[*:1])C(=O)[*:2]].Q.T.A.S.I.P.P.Q.T.Y.[dP].P}$PEPTIDE1,PEPTIDE1,1:R1-13:R2$$$V2.0
SMILES: CCCCCCCC[C@@H]1NC(=O)[C@@H]2CCCN2C(=O)[C@H]2CCCN2C(=O)[C@H](Cc2ccc(O)cc2)NC(=O)[C@H]([C@@H](C)O)NC(=O)[C@H](CCC(N)=O)NC(=O)[C@@H]2CCCN2C(=O)[C@@H]2CCCN2C(=O)[C@H]([C@@H](C)CC)NC(=O)[C@H](CO)NC(=O)[C@H](C)NC(=O)[C@H]([C@@H](C)O)NC(=O)[C@H](CCC(N)=O)NC1=O
B3: Example 99 (peptide)
peptide: XCTASIPPQCY
HELM: PEPTIDE1{[CCCCCC[C@H](N[*:1])C(=O)[*:2]].C.T.A.S.I.P.P.Q.C.Y.[dP].P}$PEPTIDE1,PEPTIDE1,2:R3-10:R3|PEPTIDE1,PEPTIDE1,1:R1-13:R2$$$V2.0
SMILES: CCCCCC[C@@H]1NC(=O)[C@@H]2CCCN2C(=O)[C@H]2CCCN2C(=O)[C@H](Cc2ccc(O)cc2)NC(=O)[C@@H]2CSSC[C@H](NC1=O)C(=O)N[C@@H]([C@@H](C)O)C(=O)N[C@@H](C)C(=O)N[C@@H](CO)C(=O)N[C@@H]([C@@H](C)CC)C(=O)N1CCC[C@H]1C(=O)N1CCC[C@H]1C(=O)N[C@@H](CCC(N)=O)C(=O)N2
notes: also called Ex. 99
B4: Example 146 (peptide)
peptide: XCTASIPPQCF
HELM: PEPTIDE1{[O=C([C@H](CCc1ccccc1)N[*:1])[*:2]].C.T.A.S.I.P.P.Q.C.F.[dP].P}$PEPTIDE1,PEPTIDE1,2:R3-10:R3|PEPTIDE1,PEPTIDE1,1:R1-13:R2$$$V2.0
SMILES: CC[C@H](C)[C@@H]1NC(=O)[C@H](CO)NC(=O)[C@H](C)NC(=O)[C@H]([C@@H](C)O)NC(=O)[C@@H]2CSSC[C@H](NC(=O)[C@H](CCC(N)=O)NC(=O)[C@@H]3CCCN3C(=O)[C@@H]3CCCN3C1=O)C(=O)N[C@@H](Cc1ccccc1)C(=O)N1CCC[C@@H]1C(=O)N1CCC[C@H]1C(=O)N[C@@H](CCc1ccccc1)C(=O)N2
B5: Example 91 (peptide)
peptide: XCTASIPPQCQ
HELM: PEPTIDE1{[Nle].C.T.A.S.I.P.P.Q.C.Q.[dP].P}$PEPTIDE1,PEPTIDE1,2:R3-10:R3|PEPTIDE1,PEPTIDE1,1:R1-13:R2$$$V2.0
SMILES: CCCC[C@@H]1NC(=O)[C@@H]2CCCN2C(=O)[C@H]2CCCN2C(=O)[C@H](CCC(N)=O)NC(=O)[C@@H]2CSSC[C@H](NC1=O)C(=O)N[C@@H]([C@@H](C)O)C(=O)N[C@@H](C)C(=O)N[C@@H](CO)C(=O)N[C@@H]([C@@H](C)CC)C(=O)N1CCC[C@H]1C(=O)N1CCC[C@H]1C(=O)N[C@@H](CCC(N)=O)C(=O)N2
notes: also called Ex. 91
B6: Example 167 (peptide)
peptide: XCTASIPPQCY
HELM: PEPTIDE1{[Nle].C.T.A.S.I.P.P.Q.C.Y.[dP].F}$PEPTIDE1,PEPTIDE1,2:R3-10:R3|PEPTIDE1,PEPTIDE1,1:R1-13:R2$$$V2.0
SMILES: CCCC[C@@H]1NC(=O)[C@H](Cc2ccccc2)NC(=O)[C@H]2CCCN2C(=O)[C@H](Cc2ccc(O)cc2)NC(=O)[C@@H]2CSSC[C@H](NC1=O)C(=O)N[C@@H]([C@@H](C)O)C(=O)N[C@@H](C)C(=O)N[C@@H](CO)C(=O)N[C@@H]([C@@H](C)CC)C(=O)N1CCC[C@H]1C(=O)N1CCC[C@H]1C(=O)N[C@@H](CCC(N)=O)C(=O)N2
notes: also called Ex. 167
B7: Example 140 (peptide)
peptide: XCTASXPPQCY
HELM: PEPTIDE1{[Nle].C.T.A.S.[O=C([C@@H](N[*:1])C1CCCCC1)[*:2]].P.P.Q.C.Y.[dP].P}$PEPTIDE1,PEPTIDE1,2:R3-10:R3|PEPTIDE1,PEPTIDE1,1:R1-13:R2$$$V2.0
SMILES: CCCC[C@@H]1NC(=O)[C@@H]2CCCN2C(=O)[C@H]2CCCN2C(=O)[C@H](Cc2ccc(O)cc2)NC(=O)[C@@H]2CSSC[C@H](NC1=O)C(=O)N[C@@H]([C@@H](C)O)C(=O)N[C@@H](C)C(=O)N[C@@H](CO)C(=O)N[C@@H](C1CCCCC1)C(=O)N1CCC[C@H]1C(=O)N1CCC[C@H]1C(=O)N[C@@H](CCC(N)=O)C(=O)N2
notes: also called Ex. 140
B8: Example 98 (peptide)
peptide: XCTASIPPQCX
HELM: PEPTIDE1{[Nle].C.T.A.S.I.P.P.Q.C.[Phg].[dP].P}$PEPTIDE1,PEPTIDE1,2:R3-10:R3|PEPTIDE1,PEPTIDE1,1:R1-13:R2$$$V2.0
SMILES: CCCC[C@@H]1NC(=O)[C@@H]2CCCN2C(=O)[C@H]2CCCN2C(=O)[C@H](c2ccccc2)NC(=O)[C@@H]2CSSC[C@H](NC1=O)C(=O)N[C@@H]([C@@H](C)O)C(=O)N[C@@H](C)C(=O)N[C@@H](CO)C(=O)N[C@@H]([C@@H](C)CC)C(=O)N1CCC[C@H]1C(=O)N1CCC[C@H]1C(=O)N[C@@H](CCC(N)=O)C(=O)N2
notes: also called Ex. 98
B9: Example 136 (peptide)
peptide: XCTASIPPQCX
HELM: PEPTIDE1{[Nle].C.T.A.S.I.P.P.Q.C.[Phg].[dP].P}$PEPTIDE1,PEPTIDE1,2:R3-10:R3|PEPTIDE1,PEPTIDE1,1:R1-13:R2$$$V2.0
SMILES: CCCC[C@@H]1NC(=O)[C@@H]2CCCN2C(=O)[C@H]2CCCN2C(=O)[C@H](c2ccccc2)NC(=O)[C@@H]2CSSC[C@H](NC1=O)C(=O)N[C@@H]([C@@H](C)O)C(=O)N[C@@H](C)C(=O)N[C@@H](CO)C(=O)N[C@@H]([C@@H](C)CC)C(=O)N1CCC[C@H]1C(=O)N1CCC[C@H]1C(=O)N[C@@H](CCC(N)=O)C(=O)N2
notes: also called Ex. 136
B10: Example 169 (peptide)
peptide: XCTASXPPQCY
HELM: PEPTIDE1{[Nle].C.T.A.S.[CCCCCCCC[C@H](N[*:1])C(=O)[*:2]].P.P.Q.C.Y.[dP].Q}$PEPTIDE1,PEPTIDE1,2:R3-10:R3|PEPTIDE1,PEPTIDE1,1:R1-13:R2$$$V2.0
SMILES: CCCCCCCC[C@@H]1NC(=O)[C@H](CO)NC(=O)[C@H](C)NC(=O)[C@H]([C@@H](C)O)NC(=O)[C@@H]2CSSC[C@H](NC(=O)[C@H](CCC(N)=O)NC(=O)[C@@H]3CCCN3C(=O)[C@@H]3CCCN3C1=O)C(=O)N[C@@H](Cc1ccc(O)cc1)C(=O)N1CCC[C@@H]1C(=O)N[C@@H](CCC(N)=O)C(=O)N[C@@H](CCCC)C(=O)N2
notes: also called Ex. 169

Assays:
Assay in all cases: enzyme inhibition, pNA substrate
[1] = target: Thrombin, from Human Plasma, high activity (human, UniProt P00734 328-622)
[2] = target: T3, Trypsin, Iodination grade, from human pancreas (human, UniProt P07477 24-247)
T3 construct: purified natural enzyme, bought

[3] = target: T4, Coagulation Factor Xa, from uman plasma (human, UniProt P00742 41-179; P00742 235-488, limits assumed)
T4 construct: purified natural enzyme, bought; also called FXa

[4] = target: T5, Urokinase from human urine (human, UniProt P00749 21-431, limits assumed)
T5 construct: purified natural enzyme, bought

[5] = target: T1, CathepsinG, from human neutrophils
Chymase, from human skin = target: T2, Chymase, from human skin
[6] = target: T6, Tryptase, from human lung (human, UniProt Q15661 31-275, limits assumed)
T6 construct: purified natural enzyme, bought

[7] = target: T7, Chymotrypsin, from human pancreas (human, UniProt P17538 19-263)
T7 construct: purified natural enzyme, bought
T7 sequence (P17538 19-263): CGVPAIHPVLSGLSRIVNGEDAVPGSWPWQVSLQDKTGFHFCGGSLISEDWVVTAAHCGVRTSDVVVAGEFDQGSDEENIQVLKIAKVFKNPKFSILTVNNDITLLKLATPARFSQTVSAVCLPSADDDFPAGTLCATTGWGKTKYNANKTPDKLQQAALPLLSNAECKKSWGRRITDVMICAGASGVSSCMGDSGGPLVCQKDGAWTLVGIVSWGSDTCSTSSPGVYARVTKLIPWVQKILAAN

T6 sequence (Q15661 31-275 limits assumed): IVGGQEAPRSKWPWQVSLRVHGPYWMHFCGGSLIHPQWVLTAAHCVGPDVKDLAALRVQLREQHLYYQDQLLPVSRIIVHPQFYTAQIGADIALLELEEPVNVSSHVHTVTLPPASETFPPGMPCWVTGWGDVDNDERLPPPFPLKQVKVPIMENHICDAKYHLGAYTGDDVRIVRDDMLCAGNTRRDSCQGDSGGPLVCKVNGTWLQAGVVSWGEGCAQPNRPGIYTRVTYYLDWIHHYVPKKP
T4 sequence (P00742 41-179 limits assumed, chain 1 of 2): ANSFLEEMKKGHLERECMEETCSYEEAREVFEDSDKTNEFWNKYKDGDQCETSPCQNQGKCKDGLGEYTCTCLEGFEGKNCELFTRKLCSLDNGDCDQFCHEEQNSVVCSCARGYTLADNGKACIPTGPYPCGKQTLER
T4 sequence (P00742 235-488 limits assumed, chain 2 of 2): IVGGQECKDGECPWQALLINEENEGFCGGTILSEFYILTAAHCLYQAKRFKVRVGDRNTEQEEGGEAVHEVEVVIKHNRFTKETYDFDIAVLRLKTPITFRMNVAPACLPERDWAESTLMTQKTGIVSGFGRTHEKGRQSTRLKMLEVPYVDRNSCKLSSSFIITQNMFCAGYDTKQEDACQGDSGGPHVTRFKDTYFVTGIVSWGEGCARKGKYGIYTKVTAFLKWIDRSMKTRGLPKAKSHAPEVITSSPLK

Binder | % inhibition at 100 µM [1] [%] | % inhibition at 100 µM [2] [%] | % inhibition at 100 µM [3] [%] | % inhibition at 100 µM [4] [%] | % inhibition at 100 µM [5] [%] | % inhibition at 100 µM (Chymase, from human skin) [%] | % inhibition at 100 µM [6] [%] | % inhibition at 100 µM [7] [%]
B1 | 0 | 19 | 19.6 | 11.1 |  |  |  | 
B2 |  | 0 | 0 |  | 27 | 0 | 15 | 
B3 | 0 | 30.5 | 0 | 17.4 |  | 0 | 0 | 
B4 | 11 |  |  | 0 |  | 0 | 22 | 87
B5 | 13.5 | 0 | 19.4 |  | 45 |  |  | 
B6 | 0 | 19 | 19.6 | 11.1 |  |  |  | 60.2
B7 | 20.6 | 10.8 | 13.3 | 10.4 |  | 0 |  | 79.6
cyclo([Nle]CTASIP[Pro(4NHCOPhe)″]QCY[dP]P) (disulfide 2-10) [Example 138] | 17.1 | 12.2 | 12.6 | 14.4 |  |  | 0 | 77.1
B8 |  | 0 | 0 | 0 |  | 0 | 0 | 
B9 |  | 0 | 0 | 0 |  | 0 | 0 | 67.9
B10 | 20.6 | 10.8 | 13.3 | 10.4 |  | 0 |  | 79.6
